The results in this text go back to publication PMC6021441, “Structural basis of the correct subunit assembly, aggregation, and intracellular degradation of nylon hydrolase” (Scientific Reports, 2018).

Assay [1] addresses T1, NylCp2-G^122 alpha subunit (D122G) (Arthrobacter, UniProt Q79F77 1-266, D122G).
T1 construct: NylCp2 alpha subunit with D122G; also called α subunit of NylCp2-G^122; source: E. coli JM109, purified with the beta subunit as the active enzyme
T1 sequence (looked up): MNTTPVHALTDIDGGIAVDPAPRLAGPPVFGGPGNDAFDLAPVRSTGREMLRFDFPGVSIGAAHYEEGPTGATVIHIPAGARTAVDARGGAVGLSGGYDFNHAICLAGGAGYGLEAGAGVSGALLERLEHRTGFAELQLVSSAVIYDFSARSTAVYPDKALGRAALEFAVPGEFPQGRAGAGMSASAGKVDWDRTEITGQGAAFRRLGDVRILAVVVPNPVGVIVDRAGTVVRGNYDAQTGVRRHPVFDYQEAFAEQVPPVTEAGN
Description: crystal structure; sitting-drop vapor diffusion, ammonium sulfate, 0.1 M HEPES pH 7.5, 0.2 M NaCl, 25% glycerol; space group C222_(1), two molecules (A/B dimer) in the asymmetric unit, tetramer by the crystallographic two-fold axis. The following applies: both partners purified.

The target in assay [2] is T2, NylCp2-Y^130 alpha subunit (H130Y) (Arthrobacter, UniProt Q79F77 1-266, H130Y).
T2 construct: NylCp2 alpha subunit with H130Y; also called α subunit of NylCp2-Y^130; source: E. coli JM109, purified with the beta subunit as the active enzyme
T2 sequence (looked up): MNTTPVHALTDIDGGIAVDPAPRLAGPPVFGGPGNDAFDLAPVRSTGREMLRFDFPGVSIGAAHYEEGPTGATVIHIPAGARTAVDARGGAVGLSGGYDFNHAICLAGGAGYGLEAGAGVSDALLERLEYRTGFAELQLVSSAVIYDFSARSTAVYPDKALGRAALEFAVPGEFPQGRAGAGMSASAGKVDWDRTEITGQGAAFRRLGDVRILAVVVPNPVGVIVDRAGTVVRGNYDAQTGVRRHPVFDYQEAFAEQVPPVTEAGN
The assay is described as above. The following applies: both partners purified.

B1: NylCp2 beta subunit (9 kDa) (domain or fragment, Arthrobacter, UniProt Q79F77 267-355, looked up)
chain: TTISAIVTNVRMSPVELNQFAKQVHSSMHRGIQPFHTDMDGDTLFAVTTDEIDLPTTPGSSRGRLSVNATALGAIASEVMWDAVLEAGK
notes: NylCp2, beta subunit made by autocleavage of the 355-residue precursor between Asn266 and Thr267; the same in the wild type and in the mutants crystallised here (all their substitutions lie in the alpha subunit); also called β subunit; source: E. coli JM109, purified with the alpha subunit as the active enzyme
Consider B1, for which the binding result in assay [1] and in assay [2] was “binds” in each case.
